# Assay results as given in US20250090695A1, “IMMUNOSTIMULANT-CYTOTOXIC CONJUGATE COMPOSITION AND METHODS FOR CANCER TREATMENT” (The Research Foundation for the State University of New York, priority 2022, published 2025).
# Like-named read-outs stand apart in the source and are kept apart here.
# Experiments:
# [1] = OLINDA dosimetry to adult male from mouse biodistribution
# [2] = Biodistribution in a xenograft model of prostate cancer with PC-3 PiP (PSMA(+)) and PC-3 flu (PSMA(−)) tumors; type: in vivo, Male NCr nude mice; settings: male, mouse, total radioactivity, PC-3 PiP/PC-3 flu xenograft, NCr nude mice
# Experimental: Biodistribution analyses of ^177Lu-RIMS-1 and ^177Lu-PSMA-617 were carried out in a xenograft model of prostate cancer with a PC-3 PiP tumor (PSMA(+)) on the left shoulder of a murine subject, and a PC-3 flu tumor (PSMA(−)) on the right should of a murine subject. Murine subjects examined were Male NCr nude mice.
# RM1-PGLS tumors = type: in vivo, murine subjects
# Experimental: FIG. 11A-11C show a visual schematic of RM1-PGLS tumor insertion in mice followed by T-cell population analysis (FIG. 11A), and tumor efficacy study analysis for in vivo tumor treatment with experimental ^177Lu-RIMS-1 compound compared with control compounds: ^177Lu-PSMA-617, unlabeled Lu-RIMS, and saline (FIG. 11B) measuring tumor volume (left), and percent survival (right).
# Murine subjects were treated with RIMS compounds and tumor volume (FIG. 11B, left), subject viability measured as percent survival (FIG. 11B, right), subject weight (FIG. 11C), were described and analyzed as shown in FIGS. 11A-11C. Median overall survivability (OS) in murine subjects treated with RIMS compounds and control therapies.
# [3] = PSMA(+) PC-3 PiP tumor, read-out: Biodistribution PSMA (+) (PC3-PIP) tumor (% ID/g ± SD)
# [4] = PSMA(-) PC-3 flu tumor, read-out: Biodistribution PSMA (−) (PC3-Flu) tumor (% ID/g ± SD)
# [5] = blood, read-out: Biodistribution Blood (% ID/g ± SD)
# [6] = bone, read-out: Biodistribution Bone (% ID/g ± SD)
# [7] = heart, read-out: Biodistribution Heart (% ID/g ± SD)
# [8] = kidney, read-out: Biodistribution Kidney (% ID/g ± SD)
# [9] = liver, read-out: Biodistribution Liver (% ID/g ± SD)
# [10] = small intestine, read-out: Biodistribution Sm Int (% ID/g ± SD)
# [11] = spleen, read-out: Biodistribution Spleen (% ID/g ± SD)
smiles,measurement,setting,value
"CCCCc1nc2c(N)nc3ccccc3c2n1Cc1ccc(CNC(=O)OCc2ccc(NC(=O)[C@H](C)NC(=O)[C@@H](NC(=O)CCCCC(=O)N[C@@H](CCCCNC(=O)CN3CCN(CC(=O)O)CCN(CC(=O)O)CCN(CC(=O)O)CC3)C(=O)NC[C@H]3CC[C@H](C(=O)N[C@@H](Cc4ccc5ccccc5c4)C(=O)NCCCC[C@H](NC(=O)N[C@@H](CCC(=O)O)C(=O)O)C(=O)O)CC3)C(C)C)cc2)cc1 [^177Lu-RIMS-1, metal not drawn]","OLINDA dosimetry to Adult Male, Eyes",[1]; Target Organ Eyes,0.02 μSv/MBq
same,"OLINDA dosimetry to Adult Male, Gallbladder Wall",[1]; Target Organ Gallbladder Wall,7.09 μSv/MBq
same,"OLINDA dosimetry to Adult Male, Heart Wall",[1]; Target Organ Heart Wall,16.60 μSv/MBq
same,"OLINDA dosimetry to Adult Male, Kidneys",[1]; Target Organ Kidneys,262.00 μSv/MBq
same,"OLINDA dosimetry to Adult Male, Left Colon",[1]; Target Organ Left Colon,1.26 μSv/MBq
same,"OLINDA dosimetry to Adult Male, Liver",[1]; Target Organ Liver,219.00 μSv/MBq
same,"OLINDA dosimetry to Adult Male, Lungs",[1]; Target Organ Lungs,15.10 μSv/MBq
same,"OLINDA dosimetry to Adult Male, Osteogenic Cells",[1]; Target Organ Osteogenic Cells,3.70 μSv/MBq
same,"OLINDA dosimetry to Adult Male, Pancreas",[1]; Target Organ Pancreas,2.49 μSv/MBq
same,"OLINDA dosimetry to Adult Male, Prostate",[1]; Target Organ Prostate,0.34 μSv/MBq
same,"OLINDA dosimetry to Adult Male, Rectum",[1]; Target Organ Rectum,0.25 μSv/MBq
same,"OLINDA dosimetry to Adult Male, Red Marrow",[1]; Target Organ Red Marrow,1.39 μSv/MBq
same,"OLINDA dosimetry to Adult Male, Right Colon",[1]; Target Organ Right Colon,1.94 μSv/MBq
same,"OLINDA dosimetry to Adult Male, Salivary Glands",[1]; Target Organ Salivary Glands,0.05 μSv/MBq
same,"OLINDA dosimetry to Adult Male, Small Intestine",[1]; Target Organ Small Intestine,3.60 μSv/MBq
same,"OLINDA dosimetry to Adult Male, Spleen",[1]; Target Organ Spleen,228.00 μSv/MBq
same,"OLINDA dosimetry to Adult Male, Stomach Wall",[1]; Target Organ Stomach Wall,2.02 μSv/MBq
same,"OLINDA dosimetry to Adult Male, Thymus",[1]; Target Organ Thymus,0.95 μSv/MBq
same,"OLINDA dosimetry to Adult Male, Thyroid",[1]; Target Organ Thyroid,0.36 μSv/MBq
same,"OLINDA dosimetry to Adult Male, Today Body",[1]; Target Organ Total Body,7.73 μSv/MBq
same,"OLINDA dosimetry to Adult Male, Tumor",[1]; Target Organ Tumor,237.00 μSv/MBq
same,"OLINDA dosimetry to Adult Male, Urinary Bladder Wall",[1]; Target Organ Urinary Bladder Wall,10.90 μSv/MBq
same,tissue uptake at 2 h,[2]; [3],7.16 ± 2.68 %ID/g
same,tissue uptake at 24 h,[2]; [3],6.04 ± 1.76 %ID/g
same,tissue uptake at 72 h,[2]; [3],2.65 ± 1.03 %ID/g
same,tissue uptake at 2 h,[2]; [4],1.65 ± 0.24 %ID/g
same,tissue uptake at 24 h,[2]; [4],0.16 ± 0.01 %ID/g
same,tissue uptake at 2 h,[2]; [5],3.36 ± 0.2 %ID/g
same,tissue uptake at 24 h,[2]; [5],0.06 ± 0.01 %ID/g
same,tissue uptake at 72 h,[2]; [5],0.01 ± 0.01 %ID/g
same,tissue uptake at 2 h,[2]; [6],0.72 ± 0.15 %ID/g
same,tissue uptake at 24 h,[2]; [6],0.17 ± 0.06 %ID/g
same,tissue uptake at 72 h,[2]; [6],0.1 ± 0.04 %ID/g
same,tissue uptake at 2 h,[2]; [7],1.28 ± 0.08 %ID/g
same,tissue uptake at 24 h,[2]; [7],0.16 ± 0.02 %ID/g
same,tissue uptake at 72 h,[2]; [7],0.06 ± 0.01 %ID/g
same,tissue uptake at 2 h,[2]; [8],24.5 ± 2.58 %ID/g
same,tissue uptake at 24 h,[2]; [8],6.24 ± 1.03 %ID/g
same,tissue uptake at 72 h,[2]; [8],2.1 ± 0.31 %ID/g
same,tissue uptake at 2 h,[2]; [9],7.95 ± 0.35 %ID/g
same,tissue uptake at 24 h,[2]; [9],3.19 ± 0.38 %ID/g
same,tissue uptake at 72 h,[2]; [9],1.36 ± 0.29 %ID/g
same,tissue uptake at 2 h,"[2]; muscle, read-out: Biodistribution Muscle (% ID/g ± SD)",0.36 ± 0.06 %ID/g
same,tissue uptake at 2 h,[2]; [10],1.15 ± 0.1 %ID/g
same,tissue uptake at 24 h,[2]; [10],0.54 ± 0.8 %ID/g
same,tissue uptake at 2 h,[2]; [11],2.32 ± 0.052 %ID/g
same,tissue uptake at 24 h,[2]; [11],0.77 ± 0.31 %ID/g
same,tissue uptake at 72 h,[2]; [11],0.29 ± 0.11 %ID/g
same,Relative body weight,"RM1-PGLS tumors; mouse, in vivo",decrease in relative body weight
same,Median OS,"RM1-PGLS tumors; overall survival post treatment, RM1-PGLS tumors, P < 0.0007 printed for 177Lu-RIMS-1",30 days
